The results in this text go back to patent US20140271629A1 (Amgen, published 2014).

Assay [1] concerns the target Human BMP4 (R&D Systems cat#314-BP) (human) (UniProt P12644). Description: cell-based or functional assay.
Assay [2] has as its target T1, huCHRDL-1-DEVD-6xHis (human, UniProt Q9BU40 28-456).
T1 construct: also called Human CHRDL-1
T1 sequence: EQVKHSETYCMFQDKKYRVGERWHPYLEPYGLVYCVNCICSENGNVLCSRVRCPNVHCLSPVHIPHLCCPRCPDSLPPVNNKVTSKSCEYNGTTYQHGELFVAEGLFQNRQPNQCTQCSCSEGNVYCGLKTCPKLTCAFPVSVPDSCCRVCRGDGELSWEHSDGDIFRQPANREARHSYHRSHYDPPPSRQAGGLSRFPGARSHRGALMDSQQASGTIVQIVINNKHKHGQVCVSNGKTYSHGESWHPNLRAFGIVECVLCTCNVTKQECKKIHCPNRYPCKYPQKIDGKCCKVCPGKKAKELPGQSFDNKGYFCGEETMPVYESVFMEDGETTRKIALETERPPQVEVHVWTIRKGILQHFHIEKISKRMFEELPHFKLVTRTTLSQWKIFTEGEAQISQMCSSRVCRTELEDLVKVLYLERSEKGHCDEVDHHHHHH
Nature of the assay: KinExA, solution equilibrium, huCHRDL-1-coated beads. On the procedure:
Binding of the various anti-CHRDL-1 antibodies to huCHRDL-1-DEVD-6xHis was performed using KinExA technology. The huCHRDL-1 protein was coated onto Reacti-Gel™ 6X (Pierce Biotechnology, Inc., Rockford, Ill.) agarose beads at a concentration of 50 ug protein/mL of beads in 50 mM Na₂CO₃ pH 9.6 for approximately 18 hours at 4° C. The coated beads were then blocked with 1 mg/mL BSA (Sigma-Aldrich, St. Louis, Mo.) in 1 M Tris-HCl, pH 7.5 for 2 hours at 4° C. Antibodies at fixed concentrations were mixed with varying concentrations of huCHRDL-1 in PBS containing 0.1 mg/mL BSA and 0.005% polysorbate 20 (P-20, BIAcore, Inc., Piscataway, N.J.) for at least 12 hours at room temperature. Antibody concentrations were 10 pM, 30 pM, 100 pM and/or 300 pM as appropriate. […] Antibody bound to the beads was quantified using fluorescent DyLight 649-conjugated goat anti-murine IgG (H+L) antibody (Jackson ImmunoResearch, West Grove, Pa.) at 1 ug/mL in Super Block (Pierce Biotechnology, Inc., Rockford, Ill.) for the mouse antibodies, or using AlexaFluor™ 647-conjugated goat anti-human IgG (H+L) at 1 ug/mL for the humanized antibody. […] The dissociation equilibrium constant (KD) can be determined from nonlinear regression analysis of the competition curves using a multiple curve one-site homogeneous binding model provided in the KinExA Pro software (Sapidyne Instruments, Inc., Boise, Id.).

Sequence of Human BMP4 (R&D Systems cat#314-BP) (human) (P12644 293-408 limits assumed): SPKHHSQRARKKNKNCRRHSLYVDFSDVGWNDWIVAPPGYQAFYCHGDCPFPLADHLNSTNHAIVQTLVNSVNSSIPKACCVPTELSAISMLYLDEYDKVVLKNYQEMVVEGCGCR

In assay [1], “Recombinant human CHRDL-1 (R&D Systems cat#1808-NR), Glu22-Cys450 with C-terminal 10xHis tag (from UniProt Q9BU40 28-456)” had an RLU mean, BRE-luciferase reporter in MC3T3-E1-BRE-Luc cells stimulated with BMP4 (TSG present) of 62 RLU and a reduction of RLU mean, BRE-luciferase reporter in MC3T3-E1-BRE-Luc cells stimulated with BMP4 (TSG present) of 89%.
In assay [1], “muCHRDL-1-DEVD-6xHis (from UniProt Q920C1 23-447)” displayed an RLU mean, BRE-luciferase reporter in MC3T3-E1-BRE-Luc cells stimulated with BMP4 (TSG present) of 254 RLU and a reduction of RLU mean, BRE-luciferase reporter in MC3T3-E1-BRE-Luc cells stimulated with BMP4 (TSG present) of 55%.

B1: huz-LC2G2.2_LC/huz-bmHC2G2.2_eflsIgG1 (antibody, V domains shown)
VH: QVQLVQSGAEVKKPGASVKVSCKASGYTFTSYWMHWVRQAPGQGLERMGNINPSNGGTNYNEKFKSRVTMTVDKSSSTAYMELSSLRSEDTAVYYCARSKNNYVAYYFDYWGQGTLVTVSS
VL: DIQMTQSPSSLSASVGDRVTITCRASENIYYSLAWYQQKPGKAPKLLIYNANSLEDGVPSRFSGSGSGTDFTLTISSLQPEDFATYYCKQAYDVPLTFGQGTKLEIKR
notes: also called huz-2G2.2-A; Huz-2G2.2-A
Regarding B1, in assay [2], the Kd was found to be 0.142 nM.
